In publication PMC3936608 (Pain, 2013):

Target: the molecule itself
Assay: SDS-PAGE + SEC

B1: Rat artemin (113 amino acids) (ligand, UniProt Q6AYE8 112-224, looked up)
chain: AGTRSSRARATDARGCRLRSQLVPVSALGLGHSSDELIRFRFCSGSCRRARSPHDLSLASLLDAGALRSPPGSRPISQPCCRPTRYEAVSFMDVNSTWRTVDHLSATACGCLG
stoichiometry N: 2
